This is an account of results in patent publication US20240239878A1 (SHANGHAI QILU PHARMACEUTICAL RESEARCH AND DEVELOPMENT CENTRE, published 2024).

Assay [1] addresses T1, human DLL3 on SHP-77 cells (human, UniProt Q9NYJ7 27-618).
T1 construct: also called DLL3-expressing cells (SHP-77)
T1 sequence: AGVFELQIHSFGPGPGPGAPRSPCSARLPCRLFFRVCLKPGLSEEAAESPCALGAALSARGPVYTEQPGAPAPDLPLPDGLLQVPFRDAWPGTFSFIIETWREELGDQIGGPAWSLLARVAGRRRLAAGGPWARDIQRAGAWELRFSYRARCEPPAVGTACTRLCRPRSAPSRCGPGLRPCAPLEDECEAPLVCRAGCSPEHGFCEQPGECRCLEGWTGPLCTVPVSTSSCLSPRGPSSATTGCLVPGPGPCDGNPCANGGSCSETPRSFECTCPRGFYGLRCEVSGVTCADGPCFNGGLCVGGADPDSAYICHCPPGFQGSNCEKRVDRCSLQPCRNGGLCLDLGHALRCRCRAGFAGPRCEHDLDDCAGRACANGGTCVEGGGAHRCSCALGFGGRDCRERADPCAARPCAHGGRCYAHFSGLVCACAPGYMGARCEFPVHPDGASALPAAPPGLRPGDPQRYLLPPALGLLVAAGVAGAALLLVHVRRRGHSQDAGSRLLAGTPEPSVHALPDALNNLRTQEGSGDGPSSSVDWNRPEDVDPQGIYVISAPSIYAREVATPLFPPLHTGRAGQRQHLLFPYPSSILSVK
Briefly: flow cytometry, SHP-77 cells. Here is the method:
Monoclonal selection was performed, and the expression level of DLL3 protein in the monoclonal cells were identified by flow cytometry. The culture was expanded and stored in storage for later use. SHP-77 and HEK293-cyno DLL3 cells were cultured. The culture medium for SHP-77 cells were RPMI1640+10% FBS, and the culture medium for HEK293 cyno DLL3 cells were DMEM+10% FBS+200 μg/ml Hygromycin. The cells were cultured in a T75 cell culture flask at a 37° ° C. in a 5% CO₂ incubator. When using cells, they are washed with sterile DPBS, digested with 0.25% trypsin EDTA for about 5 minutes, and then stopped with a complete medium.
The digested cells were centrifuged at 1000 rpm for 5 min at room temperature. The supernatant was discarded and the cells were resuspended in 100 μL of 1% BSA (in PBS). The cells were counted and adjusted to a cell density of 1E6/m. The dilute cells were seeded in a 96-well round-bottom culture plate (corning 3799), and centrifuged at 1500 rpm for 5 min at 4° C. The supernatant was discarded and the cells were stored at 4° C. until use. Antibody samples to be tested were diluted with 1% BSA (in PBS) at a starting concentration of 100 nM, downwards by a 10-fold gradient for 7 concentrations. The cells were resuspended with the diluted antibody at 100 μL/well and incubated for 1 hour at 4° C. The cells were centrifuged at 1500 rpm for 5 minutes at 4° C. and the supernatant was discarded. The cells were resuspended and washed with 160 μL of 1% BSA (in PBS), centrifuged at 1500 rpm for 5 minutes at 4° C. The supernatant was discarded. The secondary antibody (goat anti human IgG Fc PE) was diluted 1:200 with 1% BSA (in PBS) according to the manufacturer's instructions and the cells were resuspended with the diluted secondary antibody. 100 μL/well, and incubated for 0.5 h at 4° C. The cells were centrifuged at 1500 rpm for 5 minutes at 4° C. and the supernatant was discarded. The cells were resuspended and washed with 160 μL of 1% BSA (in PBS), centrifuged at 1500 rpm for 5 minutes at 4° C. The supernatant was discarded. The cells were resuspended in 100 μL of 1% BSA (in PBS), and filtered across a 300 mesh gauze. The mean fluorescence intensity of the PE channels was measured by flow cytometry.
For orientation: In flow cytometry, cells or beads pass a laser one at a time.

Assay [2] concerns the target T2, human DLL4 (Sino Biological, Cat. No. 10171-H08H) (human, UniProt Q9NR61 27-529).
T2 construct: also called family protein DLL4
Put plainly: ELISA, plate coated with human DLL4 at 1 ug/mL, OD 450nm. How it is done: (§1) The antigen was washed three times with PBST, 300 μL/well. The antigen was blocked with 1% BSA (in PBST), 200 μL/well, and incubated at 37° C. for 1.5 hours.
(§2) Antibodies to be tested were diluted with 1% BSA (in PBS) at a starting concentration of 100 nM, downwards by a 10-fold gradient for 7 concentrations. The plates were washed three times with PBST, 300 μL/well. The diluted antibody was added to an ELISA plate at 100 μL/well and incubated at room temperature for 2 hours. The antibodies were washed three times with PBST, 300 μL/well. The secondary antibodies (goat anti-human IgG Fc for DLL4 (HRP), 1:20000 dilution: HRP goat anti-mouse IgG (H+L) for DLL1, 1:10000 dilution) were diluted with 1% BSA in PBST. The diluted secondary antibodies were added to the ELISA plate at 100 μL/well and incubated at room temperature for 1 hour. The plates were washed 6 times with PBST, 300 μL/well. The developing solution (TMA and TMB 1:1 mixed) was prepared. The developing solution was added to the plate, 100 μL/well, and incubated in the dark for 5 min. 50 μL of ELISA stop solution was added to the plate and shaken well.
(§3) OD450s were read on the envision and plotted on the GraphPad for EC₅₀ values.

Assay [3] deals with T3, human DLL1 (Sino Biological, Cat. No. 11635-H08H) (human, UniProt O00548 18-545).
T3 construct: also called family protein DLL1
T3 sequence: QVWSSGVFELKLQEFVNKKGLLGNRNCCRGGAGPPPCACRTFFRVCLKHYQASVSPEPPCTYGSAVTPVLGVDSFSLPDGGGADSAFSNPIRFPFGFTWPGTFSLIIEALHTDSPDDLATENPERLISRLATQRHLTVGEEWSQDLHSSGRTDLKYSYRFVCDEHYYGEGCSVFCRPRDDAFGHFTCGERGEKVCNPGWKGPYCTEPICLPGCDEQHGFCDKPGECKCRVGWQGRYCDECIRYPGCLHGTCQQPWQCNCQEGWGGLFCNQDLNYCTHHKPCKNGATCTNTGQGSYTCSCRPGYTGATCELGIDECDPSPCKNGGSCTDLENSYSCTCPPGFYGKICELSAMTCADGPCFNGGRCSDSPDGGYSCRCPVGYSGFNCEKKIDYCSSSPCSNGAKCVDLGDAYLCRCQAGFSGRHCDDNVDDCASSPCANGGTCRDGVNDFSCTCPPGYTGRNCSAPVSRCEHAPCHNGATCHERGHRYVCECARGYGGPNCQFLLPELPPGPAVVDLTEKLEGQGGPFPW
Briefly: ELISA, plate coated with human DLL1 at 1 ug/mL, OD 450nm. Here is the method: as §1, §2, §3
In general terms: ELISA stands for enzyme-linked immunosorbent assay.

Positions count from the first letter of the chain named.

T2 sequence (Q9NR61 27-529 limits assumed): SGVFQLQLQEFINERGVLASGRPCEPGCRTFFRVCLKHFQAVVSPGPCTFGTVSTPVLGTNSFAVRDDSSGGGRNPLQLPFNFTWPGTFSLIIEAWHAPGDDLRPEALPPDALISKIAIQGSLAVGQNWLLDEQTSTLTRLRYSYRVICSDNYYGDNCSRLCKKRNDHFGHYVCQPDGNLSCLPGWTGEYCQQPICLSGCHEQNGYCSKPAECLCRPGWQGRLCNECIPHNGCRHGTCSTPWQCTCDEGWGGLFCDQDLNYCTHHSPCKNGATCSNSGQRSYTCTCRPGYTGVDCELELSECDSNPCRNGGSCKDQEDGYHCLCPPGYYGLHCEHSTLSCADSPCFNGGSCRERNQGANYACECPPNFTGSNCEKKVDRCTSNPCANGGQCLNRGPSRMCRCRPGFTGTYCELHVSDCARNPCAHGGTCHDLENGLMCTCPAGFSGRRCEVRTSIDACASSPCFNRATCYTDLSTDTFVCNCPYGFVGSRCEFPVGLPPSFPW

B1: DLL3-122 camelid-derived anti-DLL3 chimeric antibody (antibody, human IgG1, V domains shown)
VH: QVQLVESGGGSVQAGGSLRLSCTASGDTYRSYCMGWFRKAPGKEREGVADIVSDGSTSYADSVKGRFTISKDNAKNTLYLQMNSLKPEDTAMYYCAVDRGGSGGYCYTGRYDYWGQGTQVTVSS
Turning to B1, in assay [1], the EC50 (commonly the concentration at which the effect is half-maximal) amounted to 0.427 nM and the “Top MFI” value stood at 846 MFI.

B2: hDLL3-122 camelid-derived humanized anti-DLL3 antibody (antibody, V domains shown)
VH: EVQLVESGGGLVQPGGSLRLSCAASGDTYRSYCMGWFRQAPGKEREGVADIVSDGSTSYADSVKGRFTISRDNSKNTLYLQMNSLRAEDTAVYYCAVDRGGSGGYCYTGRYDYWGQGTLVTVSS
Take B2: the binding result in assay [2] and in assay [3] was “no binding (tested: 100 nM)” each time.

B3: hDLL3-3-1 camelid-derived humanized anti-DLL3 antibody (antibody, human IgG1, V domains shown)
VH: EVQLVESGGGLVQPGGSLRLSCAASTYTISSGYMGWFRQAPGKEREGVAAIYIGGSTTLYADSVKGRFTISRDNSKNTLYLQMNSLRAEDTAVYYCAAQLRPNSAYHPLDGRKYNYWGQGTLVTVSS
On to B3, for which the binding result in assay [2] and in assay [3] was “no binding (tested: 100 nM)” in each case.

B4: hDLL3-3-2 camelid-derived humanized anti-DLL3 antibody (antibody, V domains shown)
VH: B3 VH with A23K, A24S, S25P
On to B4, for which the binding result in assay [2] and in assay [3] was “no binding (tested: 100 nM)” each time.

B5: DLL3-26 camelid-derived anti-DLL3 chimeric antibody (antibody, human IgG1, V domains shown)
VH: QVQLVESGGGSVQAGGSLRLSCAASGDIYSSSYVGWFRQAPGKEREGVAIIYTSGDSTYYANSVKGRFTISQDKAKKTLYLQMNSLKPEDTAMYYCAARFAIDNSNYWGQGTQVTVSS
Consider B5, for which, in assay [1], a half-maximal response (EC50) required 0.519 nM and the “Top MFI” value is 821 MFI.

B6: hDLL3-26 camelid-derived humanized anti-DLL3 antibody (antibody, V domains shown)
VH: EVQLVESGGGLVQPGGSLRLSCAASGDIYSSSYVGWFRQAPGKEREGVAIIYTSGDSTYYADSVKGRFTISRDNSKNTLYLQMNSLRAEDTAVYYCAARFAIDNSNYWGQGTLVTVSS
In the case of B6, the binding result in assay [2] and in assay [3] was “no binding (tested: 100 nM)” each time.

B7: DLL3-3 camelid-derived anti-DLL3 chimeric antibody (antibody, human IgG1, V domains shown)
VH: DVQLVESGGGSVQAGGSLKLSCKSPTYTISSGYMGWFRQAPGKEREGVAAIYIGGSTTLYADSVKGRFTISADNAEKTVYLQMNTLKPEDSAMYYCAAQLRPNSAYHPLDGRKYNYWGQGTQVTVSS
Take B7: in assay [1], the midpoint of the response, the EC50, lay at 0.047 nM and the “Top MFI” value came out at 874 MFI.
